Laboratory results reported in the nanobody polyreactivity screen of Harvey et al. (2022).

Assay: yeast display, Sf9 membrane polyspecificity reagent, FACS + sequencing; frameworks hold sequencing errors
Procedure, shortened: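 After 36–48 hours of galactose induction, yeast (Saccharomyces cerevisiae BJ5465) displaying a synthetic nanobody library were stained at 4 °C for 1 hour with 10% biotinylated, detergent-solubilized Sf9 membrane reagent. Streptavidin microbeads enriched the stained cells before FACS sorting into low and high (top ~1%) gates on anti-HA and streptavidin fluorescence. Each clone's polyreactivity label reflects its gate of origin.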

| Sequence | polyreactivity (PSR sort gate) |
| --- | --- |
| QVQLVESGGGLVQAGGSLRLSCAASGITFSRNAMGWYRQAPGNERELVATITSGCSTNYADSVKGRFTISRDNAKNNVYLQMNSLKPEDTAIYYCNAVWNTFISGRSYDYWGQGTQVTVSS | low polyreactivity |
| QVQLVESGGGLVQAGGSLRLSSAASGITFFHYAMGWYRQEPGKERELVATISWRAGSTYADSVKGRFTISRDNAKKTVYLQMNSLKPEDTAVYYCNAVWTYHSGSGGYLFDYWGLGTQVTVSS | low polyreactivity |
| QVQLVESGGGLVQAGGSLRLSCAASGSIFWYNAMVWYRQAPGKERELVAAISYSGDRTYYADSVKGRFTISRDNAKYTVYLQMNSLKPEDTAFYYCAKAGTGFYNSWWEDYWGQGTQVTVSS | low polyreactivity |
| QVQLVESGGGLVQAGGSLRLICADSGFILPRNAMGWYRQAPGKERELVAAIRSSGGTTYYADSVKGRFTISRDIAKNTVYLQMNSLKPEDTAVYYCAAVTTSKFNYWGQGTQVTVSS | low polyreactivity |
| QVQLVESGGGLVQAGGSLRLSCSASGRIFHRYTMGWYRQSPGKEREFVAAITTRAGSTYYADSVKGRFTISRDNAKYTVFLQMNSLKPEDTAVYYCNIRRHSMFGGTTTRYDFWGQGTQVTVSS | high polyreactivity |
| QVQLVESGGGLVQAGGSLRLSCAASGRIFRKYAMGWYRQAPGKERELVAAINWSGGSTYYADSVKGRFTISRDNAKNTVYLQMNSLKPEDTAVYYCAARSPKAERDYWGQGTQVTVSS | high polyreactivity |
| QVQLVESGGGLVQAGGSLRLSCAASGSIFYPYAMGWYRQAPGKEREFVAVISKGGTNTYYADSVKGRFTISRDNAKNTVYLQMNSLKPEDTAVYYCAARVDTYRAKYYYWGQGTQVTVSS | high polyreactivity |
| QVQLVESGGGLVQAGGSLRLSCAASGFTFDPYAMGWYRQAPGKERELVAAIDYSGGTTYYADSVKGRFTISRDNAKNTVYLQMNSLKPEDTAVYYCAAEYTYYHWWGYDYWGQGTQVTVSS | high polyreactivity |
| QVQLVESGGGLVQAGGSLRLSCAASGITFWSNAMGWYRQAPGKERELVAAITSSGGSTYYADSVKGRFTISRDNAKNTVYLQMNSLKPEDTAVYYCAAPISRSAGWDSYDYWGQGTQVTVSS | low polyreactivity |
| QVQLVESGGGLVQAGGSLRLSCAASGLIFYIYAMGRYREAPGKERELVAAISSSGGSTFYADSVKGRFTISRDNAKNTVYLQMNSLKPEDTAVYYCAAYYGGGYGFHRDYWGQGTQVTVSS | high polyreactivity |
| QVQLVESGGGLVQAGGSLRLSCAASGSIFWGNAMGWYRQAPGKEREMVAAITWSGGSTYYADSVKGRFTISRDNAKNTVYLQMNSLKPEDTAVYYCYAVYIGSRRRYEYDYWGQGTQVTVSS | high polyreactivity |
| QDQLVESGRGLVQAGGSLRLSCAASGFIFYQNAMGWYRQAPGKERELVAAISWRSGRTYYADSVKGRFTISRDNAKNTVYLQMNSLKPEDTAVYYCNAVRYPSYSPEYGSWGQGTEVTVSS | high polyreactivity |
| QVQLVESGGGLVQAGGSLRLSCAASGSIFEYYAMGWYRQAPGKERELVADITTIGGSTYYADSVKGRFTISRDNAKNTVYLQMNSLKPEDTAVYYCAADYFTTFYWYDYWGQGTQVTVSS | high polyreactivity |
| QVQLVESRGGLVQAGGSLRLSCAASGRLFYSYAMGWNRQEPGKEREFVAAISRSGARTYYADSVKGRFTISRDNAKNTVYLQMNSLKPEDTAVYYCAADDFSTVEYDYWGQGTQVTVSS | low polyreactivity |
| QVQLVESGGGLVQAGGSLRLSCAASGFIFPRYTMGWYRQAPGKERELVASITRGVRTHYADSVKGRFTISRDNAKNTVYLQMNSLKPEDTAVYYCARRNDYVYTRHFDSWGQGTQVTVSS | high polyreactivity |
| QVQLVESGGGLVQAGGSLRLSCAASGRTFPDYAMGWYRQAPGKERELVARISYSGGSTSYADSVKGRFTISRDNAKNTVYLQMNSLKPEDTAVYYCNRETAYAVGRFEYCGQGTQVTVSS | low polyreactivity |

| Sequence | polyreactivity (PSR sort gate) |
| --- | --- |
| QVQLVESGGGLVQAGRSLRLSCAASGSNFLTNTMGWYRQAPGKERELVAAITLRGGRTYYADSVKGRFTISRDNAKNTVYLHMNSLKPEDTAVYYCNARNYYYPSDRDYWGQGTQVTGSS | low polyreactivity |
| QVQLVESGGGLVQAGGSLRLSCAASGRIFSGYALGWYRQAPGKERELVAAISQRGGSTTYADSVKGRFTISRDNAKNTVYLQMNSLKPEDTAVYYCAKRYTYPSGYDYWGQGTEVTVSS | low polyreactivity |
| QVQLVESGGGLVQAAGSLRLSSAASGSIFDANANGWYRQPPGKERELVAAITSGGSTYYADSVKGRFTISRVNAKNTVYLQMNSLKPEDTAVYYCAAQYYDYKTTYDYWGKGTQVTVSS | high polyreactivity |
| QVQLVESGGGLVQAGGSLRLSCAASGSIFRYNAMGWYRQAPGKERELVAAISASGGRTHYADSVKGRFTISRDNAKNTVYLQMNSLKPEDTAVYYCAAATYRGTSLYGYWGQGTQVTVSS | high polyreactivity |
| QVQLVESGGGFDQAGGSLRLSCAASGITFYDNVMGSYIQAPGKERELVAAITSGGSTNYSDSVKGRFTISRANAKNTVYLQMNSLKPEDTAVYYCAATPYGIGYDYWGQGTEVTVSS | low polyreactivity |
| QVQLVESGGGLVQAGGSLRLSCAASGRTFDSNAMGWYRQAPGKERELVAAIYADSVKGRFTISRDNAKNTVYLQMNSLKPEDTAVYYCAAETYSGQTYLGEYDYWGQGTEVTVSS | low polyreactivity |
| QVQLVESGGGLVQAGGSLRLSSAASGSTFYYNSMGWYRQAPGKETELVAGITRGGSTNYADSVKGRFTISRDNAKNTVYLQMNSLKPEDSAVYYCAKRTYFRGSSGYYYWGQGTQVTVSS | high polyreactivity |
| QVQLVESGGGLVQAGGSLRLSCAASRSIFAGNAMVWYRQSPGKERELVAGITFGDDSTYYADSVKGRFTISRDNAKNTVYLQMNSLKPEVTAVYYCATDLHPYNYYFYHYWVDAAYDYLGQGTQVTVSS | low polyreactivity |
| QVQLVESGGGLVQAGGSLRLSCAASGSIFYSYAMGWYRRAPGKERELVARITSSTGRTYYADSVKGRFTISRDNAKNTVYLQMNSLKAEDTAVYYCNVVVKGAWDYYPYDYWGQGTQVTVSS | high polyreactivity |
| QVQLVESGGGLVKAGGSLRLSCAASGYTYPLYAMGWYRQAPGKEMELVADINIGGASTYYADSVKGRFTISRDNAKNTVYLQMNSLKPEDTAVYDCAKEYYDGYFPTFDYDYWGQGTQVTVSS | low polyreactivity |
| QVQLVESGGGLVQAGGSLRLSCAASGFIFPYAMGWYRQAPGKEREMVAAISSTDGSTYYADSVKGRFTISRDNAKNTVYLQMNSLKPEDTAVYSCNAPFSFARYPSSWHYWDYYYWGQGTQVTVSS | low polyreactivity |
| QVQLVESGGGLVQAGGSLRLSCAASGFTFLWYGMGWYRQAPGKERELVAAISSSGGSTYYADSVKGRFTISRDNAKNTVFLQMNSLKPEDTAVYYCAVAVSNQYVRYGYWGQGTQVTVSS | low polyreactivity |
| QDQLVESRGGLVQAGGSLRLSCAASGRIFLTNAMGWDRKAPGKERELVAAITSGGSTYYADSVKGRFTISRDNAKNTVFLQMNSVKPEDTAVYYCNADTDRYCPYEYDYWGQGTQVTVSS | low polyreactivity |
| QVQLVESGGGLVQAGGSLRLSCAASGSIFFIYAMGLYRQAPGKERELVAGITSRGITNYADSVKGRFTISRDNAKNTVYLQMNSLKPEDTAVYYCAAGDENYTDRYDYWGQGTQVTVSS | low polyreactivity |
| QVQRVESGGGLVQAGGSLRLSCAASGSIRGYAMGWYRQAPVKERELVAAISWRGGSTYYADSVKGRFTISRDNAKNTVYLQMNSLKPEDTAVYYCATKGYPHVSTWMDSWGQGTQVTVSS | low polyreactivity |
| QVQLVESGGGLVQAGGSLRLSCAASGSIFYSYVMGWYRQAPGKERELVAAITTGGSTYYADSVKGRFTISRDNAKNTVYLQMNSLKPEDTAVYYCAAELVGTEYDYWGQGTQVTVSS | low polyreactivity |
